The values below come from paper PMC9637154 (Communications Biology, 2022).

This test addresses T1, CoV2 Parental S-RBD fused with human Fc (SARS-CoV-2, UniProt P0DTC2).
T1 construct: also called Parental RBD; RBD-Fc
The experiment in a line: BLI. Particulars: both partners purified.

B1: shACE2 N53A/N90A/N322A triple glycan deletant (domain or fragment)
chain: STIEEQAKTFLDKFNHEAEDLFYQSSLASWNYNTAITEENVQNMNNAGDKWSAFLKEQSTLAQMYPLQEIQALTVKLQLQALQQNGSSVLSEDKSKRLNTILNTMSTIYSTGKVCNPDNPQECLLLEPGLNEIMANSLDYNERLWAWESWRSEVGKQLRPLYEEYVVLKNEMARANHYEDYGDYWRGDYEVNGVDGYDYSRGQLIEDVEHTFEEIKPLYEHLHAYVRAKLMNAYPSYISPIGCLPAHLLGDMWGRFWTNLYSLTVPFGQKPNIDVTDAMVDQAWDAQRIFKEAEKFFVSVGLPAMTQGFWENSMLTDPGNVQKAVCHPTAWDLGKGDFRILMCTKVTMDDFLTAHHEMGHIQYDMAYAAQPFLLRNGANEGFHEAVGEIMSLSAATPKHLKSIGLLSPDFQEDNETEINFLLKQALTIVGTLPFTYMLEKWRWMVFKGEIPKDQWMKKWWEMKREIVGVVEPVPHDETYCDPASLFHVSNDYSFIRYYTRTLYQFQFQEALCQAAKHEGPLHKCDISNSTEAGQKLFNMLRLGKSEPWTLALENVVGAKNMNVRPLLNYFEPLFTWLKDQNKNSFVGWSTDWSPYADQSIK
notes: also called N53A/N90A/N322A triple deletant; N53A/N90A/N322 triple deletant
What is called Kd is a measure of binding affinity in units of concentration. Regarding B1, the Kd was found to be 254 nM.
